Test results from FireProtDB (doi:10.1111/febs.12694).
Several values for one entry are separate records, joined by “and”; a condition that tells them apart may be missing. Identical values can stand only once.

B1: Bacteriorhodopsin, P02945 (parent)
chain: MLELLPTAVEGVSQAQITGRPEWIWLALGTALMGLGTLYFLVKGMGVSDPDAKKFYAITTLVPAIAFTMYLSMLLGYGLTMVPFGGEQNPIYWARYADWLFTTPLLLLDLALLVDADQGTILALVGADGIMIGTGLVGALTKVYSYRFVWWAISTAAMLYILYVLFFGFTSKAESMRPEVASTFKVLRNVTVVLWSAYPVVWLIGSEGAGIVPLNIETLLFMVLDVSAKVGFGLILLRSRAIFGEAEAPEPSAGDGAAATSD

Variants of: B1
Settings: Halobacterium salinarum (strain ATCC 700922 / JCM 11081 / NRC-1); pH 3.5; Thermal; DSC; structure 1C3W; whole UniProt chain shown

| Variant | Tm | change of melting temperature, mutant - wild type (higher = more stable) |
| --- | --- | --- |
| E22Q E207Q E217Q | 69.4 °C | -7.2 °C |

Same assay, conditions: Halobacterium salinarum (strain ATCC 700922 / JCM 11081 / NRC-1); pH 4; Thermal; UV spectroscopy; transition: 2; structure 1C3W; whole UniProt chain shown

| Variant | Tm | change of melting temperature, mutant - wild type (higher = more stable) |
| --- | --- | --- |
| E22Q E207Q E217Q | 60.1 °C and 64.1 °C | -5.1 °C |

Same assay, conditions: Halobacterium salinarum (strain ATCC 700922 / JCM 11081 / NRC-1); pH 7; Thermal; DSC; structure 1C3W; whole UniProt chain shown

| Variant | Tm | change of melting temperature, mutant - wild type (higher = more stable) |
| --- | --- | --- |
| E22Q E207Q E217Q | 93.3 °C | -4.9 °C |

Same assay, conditions: Halobacterium salinarum (strain ATCC 700922 / JCM 11081 / NRC-1); pH 7; Thermal; UV spectroscopy; transition: 2; structure 1C3W; whole UniProt chain shown

| Variant | change of melting temperature, mutant - wild type (higher = more stable) |
| --- | --- |
| E22Q E207Q E217Q | -0.4 °C |

Same assay, conditions: Halobacterium salinarum (strain ATCC 700922 / JCM 11081 / NRC-1); pH 9; Thermal; DSC; structure 1C3W; whole UniProt chain shown

| Variant | Tm | change of melting temperature, mutant - wild type (higher = more stable) |
| --- | --- | --- |
| E22Q E207Q E217Q | 82.6 °C | -11.9 °C |

Same assay, conditions: Halobacterium salinarum (strain ATCC 700922 / JCM 11081 / NRC-1); pH 9.5; Thermal; UV spectroscopy; glycine buffer; transition: 2; structure 1C3W; whole UniProt chain shown

| Variant | change of melting temperature, mutant - wild type (higher = more stable) |
| --- | --- |
| E22Q E207Q E217Q | 0 °C |
